The supplement of paper PMC11136658

System: peptide library, one residue held at a place counted from the Y acceptor
Test: relative phosphorylation of the sub-library (ratio to the mean residue at this position); higher = residue favoured
How it was run: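 Every value reflects phosphorylation relative to the mean randomized residue. The sum of the 18 randomized residues, or 16 in the Ser/Thr-free library, served to normalize intensities at each position, which were then multiplied by that number. Intensities came from phosphorimaging with ImageQuant of biotinylated Tyr-centred peptides captured on streptavidin membranes after 90 min with purified recombinant kinases and 50 μM ATP plus γ-32P-ATP.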

YES1, construct: Full length, human, sequence (P07947 whole entry, looked up): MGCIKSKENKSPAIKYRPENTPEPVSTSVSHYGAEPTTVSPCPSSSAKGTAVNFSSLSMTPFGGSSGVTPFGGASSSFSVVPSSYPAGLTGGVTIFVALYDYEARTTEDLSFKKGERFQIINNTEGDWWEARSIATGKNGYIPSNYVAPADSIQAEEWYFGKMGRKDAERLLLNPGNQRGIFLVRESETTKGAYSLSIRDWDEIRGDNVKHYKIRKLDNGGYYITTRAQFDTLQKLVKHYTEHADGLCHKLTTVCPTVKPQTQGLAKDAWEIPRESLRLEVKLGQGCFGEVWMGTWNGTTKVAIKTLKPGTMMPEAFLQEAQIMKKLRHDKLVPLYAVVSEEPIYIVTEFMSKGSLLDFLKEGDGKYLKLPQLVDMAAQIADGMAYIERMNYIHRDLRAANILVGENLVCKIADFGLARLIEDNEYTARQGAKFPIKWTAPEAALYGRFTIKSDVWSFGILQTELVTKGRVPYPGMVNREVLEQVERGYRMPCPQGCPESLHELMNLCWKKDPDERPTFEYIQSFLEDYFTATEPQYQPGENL
ZAP70, construct: Full length, human, sequence (P43403 whole entry, looked up): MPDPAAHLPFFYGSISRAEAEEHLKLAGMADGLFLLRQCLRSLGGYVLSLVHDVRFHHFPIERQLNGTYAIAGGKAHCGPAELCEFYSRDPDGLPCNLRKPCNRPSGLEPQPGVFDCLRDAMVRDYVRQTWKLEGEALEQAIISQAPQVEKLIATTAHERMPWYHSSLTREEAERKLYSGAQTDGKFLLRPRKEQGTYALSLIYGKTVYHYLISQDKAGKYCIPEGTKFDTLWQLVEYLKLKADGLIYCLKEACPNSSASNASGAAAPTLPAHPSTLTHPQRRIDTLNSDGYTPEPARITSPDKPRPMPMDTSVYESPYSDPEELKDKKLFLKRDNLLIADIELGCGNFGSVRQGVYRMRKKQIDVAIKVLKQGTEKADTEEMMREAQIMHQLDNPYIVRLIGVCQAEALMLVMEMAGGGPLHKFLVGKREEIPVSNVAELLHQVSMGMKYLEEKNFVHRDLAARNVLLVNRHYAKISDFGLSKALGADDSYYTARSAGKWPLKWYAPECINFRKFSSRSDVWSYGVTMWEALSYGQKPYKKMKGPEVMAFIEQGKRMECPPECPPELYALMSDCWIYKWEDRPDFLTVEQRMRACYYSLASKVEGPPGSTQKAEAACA

YES1, construct: Full length, human (from UniProt P07947)
relative phosphorylation
Conditions | at +1 | at +2 | at +3 | at +4 | at +5 | at -1 | at -2 | at -3 | at -4 | at -5
A fixed | 1.59 | 1.07 | 0.621 | 0.835 | 0.959 | 0.583 | 0.987 | 0.821 | 0.944 | 0.967
D fixed | 0.822 | 0.636 | 0.492 | 0.759 | 0.76 | 0.641 | 1.35 | 1.7 | 1.42 | 1.35
E fixed | 1.32 | 1.28 | 0.546 | 0.885 | 0.867 | 0.819 | 1.41 | 2.16 | 1.57 | 1.1
F fixed | 0.723 | 1.08 | 2.83 | 1.24 | 1.13 | 0.652 | 0.57 | 0.794 | 0.731 | 0.861
G fixed | 2.83 | 0.751 | 0.668 | 1.01 | 0.957 | 0.569 | 1.11 | 1.04 | 1.25 | 1.03
H fixed | 0.8 | 0.71 | 1 | 1.12 | 1.07 | 0.733 | 1.27 | 1.03 | 1.02 | 1.02
I fixed | 0.589 | 1.15 | 1.52 | 0.814 | 0.675 | 3.12 | 0.56 | 0.559 | 0.75 | 0.675
K fixed | 0.418 | 0.721 | 0.552 | 1.06 | 1.19 | 0.468 | 0.873 | 0.697 | 0.989 | 1.23
L fixed | 0.596 | 1.08 | 1.46 | 0.866 | 0.841 | 1.71 | 0.679 | 0.66 | 0.951 | 0.719
M fixed | 1.11 | 1.19 | 1.01 | 1.29 | 0.932 | 0.974 | 0.727 | 0.74 | 0.952 | 0.834
N fixed | 0.644 | 0.791 | 0.657 | 0.899 | 1.09 | 0.463 | 1.4 | 1.39 | 1.01 | 1.35
P fixed | 0.462 | 0.724 | 0.518 | 0.785 | 1.37 | 1.3 | 1.31 | 1.02 | 1.12 | 1.22
Q fixed | 0.897 | 1 | 0.599 | 1.17 | 1.01 | 0.521 | 1.18 | 1.15 | 1.09 | 1.1
R fixed | 0.538 | 0.951 | 0.913 | 1.36 | 1.51 | 0.399 | 0.95 | 0.76 | 1.01 | 1.16
S fixed | 1.13 | 1.3 | 0.672 | 0.938 | 1.07 | 0.518 | 1.31 | 1.08 | 0.846 | 0.949
T fixed | 1.08 | 1.44 | 0.908 | 1.01 | 1 | 1.51 | 0.968 | 0.862 | 0.727 | 0.908
V fixed | 0.892 | 1.3 | 1.37 | 0.842 | 0.749 | 2.26 | 0.663 | 0.558 | 0.857 | 0.783
W fixed | 1.54 | 0.815 | 1.67 | 1.11 | 0.821 | 0.766 | 0.69 | 0.979 | 0.762 | 0.755
pThr fixed | 1.21 | 1.33 | 0.497 | 0.667 | 0.674 | 1.07 | 1.1 | 1.13 | 1.07 | 1.17
pTyr fixed | 2.21 | 1.24 | 0.636 | 0.841 | 0.739 | 0.806 | 1.21 | 1.18 | 1.27 | 1.2

ZAP70, construct: Full length, human (from UniProt P43403)
relative phosphorylation
Conditions | at +1 | at +2 | at +3 | at +4 | at +5 | at -1 | at -2 | at -3 | at -4 | at -5
A fixed | 1.06 | 0.821 | 0.963 | 0.884 | 1.33 | 0.998 | 0.898 | 0.967 | 1.56 | 1.12
D fixed | 0.587 | 0.722 | 0.434 | 1.07 | 1.28 | 3.39 | 1.51 | 2.04 | 1.67 | 1.57
E fixed | 1.29 | 1.08 | 0.275 | 1 | 1.28 | 1.95 | 2.19 | 2.09 | 2.51 | 1.4
F fixed | 1.5 | 1.2 | 0.924 | 0.707 | 0.618 | 0.579 | 0.492 | 0.617 | 0.494 | 0.863
G fixed | 0.481 | 0.544 | 0.842 | 1.14 | 1.63 | 0.746 | 1.56 | 1.1 | 1.43 | 1.58
H fixed | 1.33 | 0.773 | 0.947 | 1.21 | 0.872 | 0.946 | 1 | 0.848 | 0.854 | 1.15
I fixed | 0.769 | 0.724 | 1.11 | 0.548 | 0.423 | 0.956 | 0.413 | 0.588 | 0.561 | 0.684
K fixed | 0.553 | 0.811 | 0.389 | 1.01 | 0.858 | 0.496 | 0.629 | 0.638 | 0.609 | 0.847
L fixed | 0.761 | 0.949 | 0.956 | 0.764 | 0.55 | 0.796 | 0.465 | 0.559 | 0.571 | 0.553
M fixed | 0.97 | 0.827 | 1.98 | 0.997 | 0.83 | 0.671 | 0.633 | 0.54 | 0.618 | 0.947
N fixed | 0.635 | 1.01 | 0.499 | 0.731 | 0.967 | 1.2 | 1.52 | 1.53 | 0.822 | 1.26
P fixed | 0.314 | 0.988 | 2.61 | 1.77 | 2.28 | 0.594 | 0.845 | 1.06 | 1.76 | 1.08
Q fixed | 1.4 | 1.14 | 0.626 | 1.28 | 0.936 | 0.958 | 1.46 | 1.01 | 1.03 | 0.886
R fixed | 0.448 | 0.77 | 0.432 | 1 | 0.522 | 0.4 | 0.576 | 0.713 | 0.684 | 0.814
S fixed | 0.981 | 0.862 | 1.09 | 1.05 | 1.15 | 0.899 | 1.39 | 1.36 | 0.877 | 0.847
T fixed | 1.31 | 1.08 | 0.782 | 0.955 | 1.25 | 1.04 | 1.26 | 0.966 | 0.661 | 0.925
V fixed | 1.56 | 0.99 | 1.55 | 0.907 | 0.617 | 0.8 | 0.693 | 0.666 | 0.676 | 0.837
W fixed | 2.05 | 2.7 | 1.58 | 0.97 | 0.62 | 0.573 | 0.464 | 0.713 | 0.625 | 0.625
pThr fixed | 1.75 | 2.19 | 0.364 | 0.792 | 1.55 | 6.59 | 4.22 | 4.5 | 2.58 | 2.92
pTyr fixed | 14.8 | 2.62 | 0.501 | 0.573 | 1.09 | 16.3 | 3.62 | 4.31 | 3.03 | 2.17
